Experimental findings from IntAct's records for PubMed 22333915 are described below.

The chains are these.
B1: Transcription factor NRM1 (Saccharomyces cerevisiae), P53718 (parent)
chain: MSIMKQRLPLGEFSSSKINKLAIANIADASEPRNHGENNVGTVCLPSIKSLMVSPEVYENTKSLPVPLMRSSGGGMACASKSSCQDGISTKTTSRDYSELSKKLQIRLQFAYYKYKTKQTDKNFTDLKSKHSITRPSKVATHSKSEPLTRRRKLVLSQGHYKTPARSKIKTPSSICSHDNTSSFTSFRGVSESSSTTADMNVADTTTPIRNNINTKHSNSHNRTLYQRQETPTSIKAAKSLIHLFTSNQ

The variants in this experiment derive from B1. Particulars: with rad53_yeast RAD53, P22216.
Chain of rad53_yeast RAD53, P22216 (P22216 whole entry): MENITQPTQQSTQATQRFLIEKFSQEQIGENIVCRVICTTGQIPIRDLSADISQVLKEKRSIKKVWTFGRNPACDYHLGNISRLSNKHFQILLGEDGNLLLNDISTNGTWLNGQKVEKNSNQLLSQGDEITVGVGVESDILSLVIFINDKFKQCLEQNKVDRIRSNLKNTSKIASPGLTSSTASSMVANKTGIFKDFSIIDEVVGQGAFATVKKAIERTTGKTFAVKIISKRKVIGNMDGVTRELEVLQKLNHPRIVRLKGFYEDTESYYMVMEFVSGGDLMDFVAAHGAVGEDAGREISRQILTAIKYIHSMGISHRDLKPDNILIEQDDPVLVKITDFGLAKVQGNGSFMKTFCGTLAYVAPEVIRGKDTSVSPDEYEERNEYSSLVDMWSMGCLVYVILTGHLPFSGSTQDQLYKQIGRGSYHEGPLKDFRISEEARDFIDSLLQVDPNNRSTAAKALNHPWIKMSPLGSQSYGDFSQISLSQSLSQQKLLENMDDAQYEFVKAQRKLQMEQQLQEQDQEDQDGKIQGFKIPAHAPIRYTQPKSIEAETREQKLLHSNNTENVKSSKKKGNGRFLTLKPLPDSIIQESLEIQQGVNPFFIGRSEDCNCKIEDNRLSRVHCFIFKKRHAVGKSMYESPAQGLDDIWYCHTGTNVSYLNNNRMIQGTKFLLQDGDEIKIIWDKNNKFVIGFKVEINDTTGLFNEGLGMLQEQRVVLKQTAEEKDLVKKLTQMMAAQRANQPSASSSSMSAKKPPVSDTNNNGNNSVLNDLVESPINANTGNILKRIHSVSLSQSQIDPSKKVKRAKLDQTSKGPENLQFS
For MSIMKQRLPLGEFSSSKINKLAIANIADASEPRNHGENNVGAVCLPAIKSLMVSPEVYENTKSLPVPLMRSSGGGMACASKSSCQDGISTKTTSRDYSELSKKLQIRLQFAYYKYKTKQTDKNFTDLKSKHSITRPSKVATHSKAEPLTRRRKLVLSQGHYKTPARSKIKTPSSICSHDNTSSFTSFRGVSESSSTTADMNVADTTTPIRNNINTKHSNSHNRTLYQRQETPTSIKAAKALIHLFTSNQ [T42A;S47A;S145A;S240A], the “effect of a mutation on the interaction” value is “decreasing interaction”.
